Measurements: article PMC10786891, “Massively parallel profiling of RNA-targeting CRISPR-Cas13d”
Positions count from the first letter of the chain named. Numbers in names are those of the source.

T1: EsCas13d, nuclease-dead (Eubacterium siraeum, UniProt B0MS50, R295A;H300A;R849A;H854A)
T1 sequence: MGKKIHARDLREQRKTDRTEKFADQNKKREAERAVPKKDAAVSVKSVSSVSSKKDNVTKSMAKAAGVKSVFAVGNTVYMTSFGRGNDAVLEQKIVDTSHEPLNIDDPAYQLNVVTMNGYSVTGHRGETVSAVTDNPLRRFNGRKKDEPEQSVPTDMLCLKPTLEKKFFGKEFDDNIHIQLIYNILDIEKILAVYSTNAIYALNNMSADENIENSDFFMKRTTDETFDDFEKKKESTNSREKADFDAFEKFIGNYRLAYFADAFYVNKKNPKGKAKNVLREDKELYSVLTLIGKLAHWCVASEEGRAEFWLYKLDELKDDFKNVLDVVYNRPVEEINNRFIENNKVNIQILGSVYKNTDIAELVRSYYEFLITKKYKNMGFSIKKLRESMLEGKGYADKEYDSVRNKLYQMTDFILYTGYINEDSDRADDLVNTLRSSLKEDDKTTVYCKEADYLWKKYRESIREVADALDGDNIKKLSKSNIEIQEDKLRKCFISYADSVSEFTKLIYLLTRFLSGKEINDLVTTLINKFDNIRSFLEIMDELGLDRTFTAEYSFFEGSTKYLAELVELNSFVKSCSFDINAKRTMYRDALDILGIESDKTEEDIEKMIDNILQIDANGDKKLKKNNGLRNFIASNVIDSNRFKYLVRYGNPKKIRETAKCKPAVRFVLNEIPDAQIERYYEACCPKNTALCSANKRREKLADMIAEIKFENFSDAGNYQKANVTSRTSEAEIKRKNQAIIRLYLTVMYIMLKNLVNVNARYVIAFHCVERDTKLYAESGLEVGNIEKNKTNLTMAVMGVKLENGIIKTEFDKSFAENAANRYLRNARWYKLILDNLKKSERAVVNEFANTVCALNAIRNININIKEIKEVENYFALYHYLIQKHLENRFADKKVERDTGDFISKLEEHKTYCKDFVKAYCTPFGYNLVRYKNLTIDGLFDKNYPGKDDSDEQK

B1: target 2 MT 5'PFS CAC 3'PFS AAC (mixed)
RNA 1: CACCCGUGCAAAAUUGCAGGGGUCUAAAACCUUCUCCAAAUUGUUUCAUCCU
RNA 2: GGGAAUGGAUCCACAUCUACGAAUUCCACAGGAUGAAACAAUUUGGAGAAGAACAGAUCGGAAGAGCACACGU
B2: target 2 MT 5'PFS ACG 3'PFS AAU (mixed)
RNA 1: B1 RNA 1
RNA 2: B1 RNA 2 with C27A, A28C, C29G, C54U
B3: target 2 MT 5'PFS CAC 3'PFS AAA (mixed)
RNA 1: B1 RNA 1
RNA 2: B1 RNA 2 with C54A
B4: target 2 MT 5'PFS GCU 3'PFS CGG (mixed)
RNA 1: B1 RNA 1
RNA 2: B1 RNA 2 with C27G, A28C, C29U, A52C, A53G, C54G
B5: target 2 MT 5'PFS GCU 3'PFS CGA (mixed)
RNA 1: B1 RNA 1
RNA 2: B1 RNA 2 with C27G, A28C, C29U, A52C, A53G, C54A
B6: target 2 MT 5'PFS UCG 3'PFS AUC (mixed)
RNA 1: B1 RNA 1
RNA 2: B1 RNA 2 with C27U, A28C, C29G, A53U
B7: target 2 MT 5'PFS UCG 3'PFS AUA (mixed)
RNA 1: B1 RNA 1
RNA 2: B1 RNA 2 with C27U, A28C, C29G, A53U, C54A
B8: target 2 MT 5'PFS ACC 3'PFS AAU (mixed)
RNA 1: B1 RNA 1
RNA 2: B1 RNA 2 with C27A, A28C, C54U
B9: target 2 MT 5'PFS ACC 3'PFS AAC (mixed)
RNA 1: B1 RNA 1
RNA 2: B1 RNA 2 with C27A, A28C
B10: target 2 MT 5'PFS ACC 3'PFS AAA (mixed)
RNA 1: B1 RNA 1
RNA 2: B1 RNA 2 with C27A, A28C, C54A
B11: target 1 C7A,A18G (mixed)
RNA 1: CACCCGUGCAAAAAUGCAGGGGUCUAAAACUGAGCGGAUAACCUCUCUAUGG
RNA 2: GGGAAUGGAUCCACAUCUACGAAUUCGUACCAUGGAGAGGUUAUACGCUCACCGAGAUCGGAAGAGCACACGU
B12: target 1 insG 3' of 18,insU 3' of 17 (mixed)
RNA 1: B11 RNA 1
RNA 2: GGGAAUGGAUCCACAUCUACGAAUUCGUACCAUAGGUAGAGGUUAUCCGCUCACCGAGAUCGGAAGAGCACACGU
B13: target 2 MT 5'PFS GAU 3'PFS UGU (mixed)
RNA 1: B1 RNA 1
RNA 2: B1 RNA 2 with C27G, C29U, A52U, A53G, C54U
B14: target 2 MT 5'PFS UAU 3'PFS AUC (mixed)
RNA 1: B1 RNA 1
RNA 2: B1 RNA 2 with C27U, C29U, A53U
B15: target 2 MT 5'PFS GAU 3'PFS UGA (mixed)
RNA 1: B1 RNA 1
RNA 2: B1 RNA 2 with C27G, C29U, A52U, A53G, C54A
B16: target 2 MT 5'PFS GAU 3'PFS UGC (mixed)
RNA 1: B1 RNA 1
RNA 2: B1 RNA 2 with C27G, C29U, A52U, A53G
B17: target 2 MT 5'PFS GGA 3'PFS AUU (mixed)
RNA 1: B1 RNA 1
RNA 2: B1 RNA 2 with C27G, A28G, C29A, A53U, C54U
B18: target 2 MT 5'PFS UUA 3'PFS UCG (mixed)
RNA 1: B1 RNA 1
RNA 2: B1 RNA 2 with C27U, A28U, C29A, A52U, A53C, C54G
B19: target 2 MT 5'PFS CAC 3'PFS AGC (mixed)
RNA 1: B1 RNA 1
RNA 2: B1 RNA 2 with A53G
B20: target 2 MT 5'PFS UUA 3'PFS UCA (mixed)
RNA 1: B1 RNA 1
RNA 2: B1 RNA 2 with C27U, A28U, C29A, A52U, A53C, C54A
B21: target 2 MT 5'PFS UUA 3'PFS UCU (mixed)
RNA 1: B1 RNA 1
RNA 2: B1 RNA 2 with C27U, A28U, C29A, A52U, A53C, C54U
B22: target 2 MT 5'PFS GGA 3'PFS AUG (mixed)
RNA 1: B1 RNA 1
RNA 2: B1 RNA 2 with C27G, A28G, C29A, A53U, C54G
B23: target 1 G5A,C7U (mixed)
RNA 1: B11 RNA 1
RNA 2: B11 RNA 2 with G34A, A45U, G47A
B24: target 2 MT 5'PFS CAC 3'PFS CGC (mixed)
RNA 1: B1 RNA 1
RNA 2: B1 RNA 2 with A52C, A53G
B25: target 2 MT 5'PFS GGA 3'PFS AUA (mixed)
RNA 1: B1 RNA 1
RNA 2: B1 RNA 2 with C27G, A28G, C29A, A53U, C54A
B26: target 2 MT 5'PFS CAC 3'PFS CGA (mixed)
RNA 1: B1 RNA 1
RNA 2: B1 RNA 2 with A52C, A53G, C54A
B27: target 2 MT 5'PFS GGA 3'PFS AUC (mixed)
RNA 1: B1 RNA 1
RNA 2: B1 RNA 2 with C27G, A28G, C29A, A53U
B28: target 2 MT 5'PFS GAC 3'PFS UCU (mixed)
RNA 1: B1 RNA 1
RNA 2: B1 RNA 2 with C27G, A52U, A53C, C54U
B29: target 2 MT 5'PFS GUU 3'PFS CUG (mixed)
RNA 1: B1 RNA 1
RNA 2: B1 RNA 2 with C27G, A28U, C29U, A52C, A53U, C54G
B30: target 2 MT 5'PFS GCA 3'PFS UCC (mixed)
RNA 1: B1 RNA 1
RNA 2: B1 RNA 2 with C27G, A28C, C29A, A52U, A53C
B31: target 2 MT 5'PFS GUU 3'PFS CUC (mixed)
RNA 1: B1 RNA 1
RNA 2: B1 RNA 2 with C27G, A28U, C29U, A52C, A53U
B32: target 2 MT 5'PFS GUU 3'PFS CUA (mixed)
RNA 1: B1 RNA 1
RNA 2: B1 RNA 2 with C27G, A28U, C29U, A52C, A53U, C54A
B33: target 2 MT 5'PFS UAU 3'PFS CCA (mixed)
RNA 1: B1 RNA 1
RNA 2: B1 RNA 2 with C27U, C29U, A52C, A53C, C54A
B34: target 1 G15U,A16G (mixed)
RNA 1: B11 RNA 1
RNA 2: B11 RNA 2 with G34A, A36G, G37U, A45C
B35: target 2 MT 5'PFS GAC 3'PFS UCG (mixed)
RNA 1: B1 RNA 1
RNA 2: B1 RNA 2 with C27G, A52U, A53C, C54G
B36: target 2 MT 5'PFS UAU 3'PFS CCG (mixed)
RNA 1: B1 RNA 1
RNA 2: B1 RNA 2 with C27U, C29U, A52C, A53C, C54G
B37: target 2 MT 5'PFS GAC 3'PFS UCA (mixed)
RNA 1: B1 RNA 1
RNA 2: B1 RNA 2 with C27G, A52U, A53C, C54A
B38: target 2 MT 5'PFS GCU 3'PFS CAG (mixed)
RNA 1: B1 RNA 1
RNA 2: B1 RNA 2 with C27G, A28C, C29U, A52C, C54G

Target: T1, EsCas13d, nuclease-dead
Test: crRNA (strand 1, pre-loaded); Mg2+; 40 mM Tris-HCl pH 7.5, 150 mM NaCl, 6 mM MgCl2, 1 mM DTT, 0.1% Tween-20, 0.2 mg/ml BSA; 25 C; 10 min per concentration, then washed
Settings: tags: His6-TwinStrep-SUMO cleaved; N-terminal SNAP kept (SNAP-Surface 488); label: 3' end held by stalled T7 RNA polymerase

Compared with B1, B2 is 2.7-fold higher in Kd: 1.98 ± 0.3 nM for the first, 5.4 ± 1.3 nM for the second.

Going from B3 to B4, the Kd rises from 1.71 ± 0.3 nM to 19 ± 4 nM (11-fold).

Compared with B5, B6 is 3-fold higher in Kd: 23 ± 5 nM for the first, roughly 70 nM for the second. The first binds more tightly here.

First: B7
Second: B8
The Kd of the first is 3.6-fold higher: 29 ± 9 nM for the first, 8 ± 1.2 nM for the second.

B9 and B10 are within error of each other in Kd: 10.5 ± 3.1 nM for the first, 9.3 ± 2.7 nM for the second.

First: B11
Second: B12
The Kd of the first is 1.7-fold higher: 50 ± 8 nM for the first, 30.3 ± 2.6 nM for the second.

Going from B13 to B14, the Kd rises from 21.2 ± 2.2 nM to 53 ± 9 nM (2.5-fold).

B15 and B16 are within error of each other in Kd: 19 ± 5 nM for the first, 14.9 ± 1.9 nM for the second.

Going from B17 to B18, the Kd rises from 9 ± 1 nM to 25 ± 4 nM (2.8-fold).

First: B19
Second: B20
The Kd of the first is 11-fold lower: 1.87 ± 0.32 nM for the first, 20 ± 4 nM for the second. The first binds more tightly here.

Compared with B21, B22 is 2.9-fold lower in Kd: 28 ± 4 nM for the first, 9.8 ± 0.9 nM for the second. The second binds more tightly here.

Going from B23 to B24, the Kd falls from 7.7 ± 0.5 nM to 1.69 ± 0.2 nM (4.6-fold). The second binds more tightly here.

First: B25
Second: B26
The Kd of the first is 3.4-fold higher: 10.2 ± 1.5 nM for the first, 3.01 ± 0.34 nM for the second.

Going from B27 to B28, the Kd rises from 12.4 ± 1.9 nM to 27 ± 6 nM (2.2-fold).

Going from B29 to B30, the Kd rises from 21.3 ± 2.8 nM to 32 ± 4 nM (1.5-fold).

B31 and B32 are within 1.5-fold of each other in Kd: 20.4 ± 2.3 nM for the first, 14 ± 1.9 nM for the second.

B33 and B34 are within error of each other in Kd: 37 ± 15 nM for the first, 27.1 ± 2.2 nM for the second.

Going from B35 to B36, the Kd rises from 15.2 ± 2.7 nM to 55 ± 8 nM (3.6-fold).

B37 and B38 are within error of each other in Kd: 13.8 ± 3.4 nM for the first, 17 ± 4 nM for the second.
